This data set is described as follows: label from the status in PepcDB records.
As to “MSNSQWVPVSLNEYLAHLPMSDEQRAELASCTTFAELHERLSAQPVTDPAEAAQASVGRRLTLSADDLEDAEMLGVDASGRLCLKATPPIRRTKVVPEPWRTNILVRGWRRLTGKSNPPKPDHSDLPRDLPKSRWRTVGSIRRYILLILMLGQTIVAGSYMKGILPYQGWSLVSLDEITRQTFVQTALQVLPYALQTSILLLFGILFCWVSAGFWTALMGFLELLTGRDKYRISGASAGNEPIEAGARTALVMPICNEDVPRVFAGLRATFESVAATGNLDRFDFFVLSDTNETDIAVAEQQAWLDVCRETKGFGSIFYRRRRRRVKRKSGNLDDFCRRWGGEYRYMVVLDADSVMSGECLTSLVRLMEATPDAGIIQTAPRASGMDTLYARMQQFATRVYGPLFTAGLHFWQLGESHYWGHNAIIRMKPFIEHCALAPLPGKGAFAGAILSHDFVEAALMRRAGWGVWIAYDLPGSYEELPPNLLDELKRDRRWCHGNLMNFRLFLVKGMHPVHRAVFLTGVMSYLSAPLWFFFLVLSTALLAVNTLMEPTYFLEPRQLYPLWPQWHPERAVALFSTTIVLLFLPKLLSVILIWAKGAKGFGGKFKVTVSMLLEMLFSVLLAPVRMLFHTRFVLAAFLGWAATWNSPQRDDDSTPWLEAVKRHGPQTLLGACWALLVFWLNPSFLWWLAPIVVSLMLSIPVSVISSRTNLGLKARDEKFFLIPEEFEPPQELVSTDQYTHENRWHALKQGFIRAVVDPRQNALACALATSRHRQAQPIEVVRMERVDHALKVGPAKLDNQHRLMLLSDPVALGRLHERVWSEGHEEWLAAWRASIEADPHAPLLPLQPVVKAPEPVLV”, the protein production result is “failed”.

Turning to “MSNSSQYYTRTAQFLHWIMAIIFISAWIIGFYSGNFLNYETDGSFKGDVITLHKNIATTIIFLVMIRIFWRYTHPTPELPATMSPLMKKLAHLGHLALYVILIALPISGCFYSWSAGHPAPVLYLFNIPQLIGENPEIMAIAKPVHVYLSWFAGLMVAGHILAALKHHFIDKDNVLKSMIKQSR”, the protein production entry is “failed”.

In the case of “MSNSTEPALAIITVTYSPGKHLGAFLSSVKEATAQPTYVVLADNGSVDGVPEAAAQADPSVEFFPTGGNIGYGSAINAAVRKLAPLRESGKINAEFFVLSNPDVVFEPGSIDAMVQCASRHPQAADIGPYIRQSDGSAYPSARQVPTIKNGVGHALFSSVWPSNPWSRAYRDNRDMTTERTAGWLSGSCLLVRWDAFEQIGGFDERYFMYMEDVDLGDRFGRAGFDNVFCPDAVITHAVGHAAGKHPEKMLPAHHDSAYRFQADRHPGLRYLPLRVLLRVGLKLRAVVAVAAAKFKLEHHHHHH”, the protein production result was “not failed”.

For the sequence “MSNTVRAISPDITLFNKTLTFQEISQNTREAVIYIHGGAWNDPENTPNDFNQLANTIKSMDTESTVCQYSIEYRLSPEITNPRNLYDAVSNITRLVKEKGLTNINMVGHSVGATFIWQILAALKDPQEKMSEAQLQMLGLLQIVKRVFLLDGIYSLKELLVEYPEYDCFTRLAFPDGIQMYEEEPSRVMPYVKKALSRFSIDMHLVHSYSDELLTLRQTNCLISCLQDYQLSFKLYLDDLGLHNDVYKNGKVAKYIFDNIC”, the protein production result is on record as “not failed”.

As to “MSNYNVSLVGPAPWGFRLQGGKDFNMPLTISSLKDGGKASQAHVRIGDVVLSIDGISAQGMTHLEAQNKIKACTGSLNMTLQRASAAAKSEPVAVQKGEPKEVVKPVPITSPAVSKVTSTTNMAYNKVPRPFGSVSSPKVTSIPSPSSAFTPAHAATSSHASPPPVAAVTPPPLSASGLHASANPSAAQCSSPPNTGKPAVHVPRQPTVTSVCSESAQELAEGQRRGSQGDIKQQNGPPRKHIVERNTEFYHIPTHSDASKKRLIEDTEDWRPRTGTTQSRSFRILAQITGTEHLKESENDNAKKANSTPEPSQQSASPLSAAESLESPGSNRPVVAGLRSAAAFKPVGSTSVKSPSWQRPNQAAPSTGRISNSASSSGTGAPMKPAVGPPQPSDQDTLVQRAEHIPAGKRTPMCAHCNQAIRGPFLVALGKSWHPEEFNCAHCKNTMAYIGFVEEKGALYCELCYEKFFAPECGRCQRKILGEVINALKQTWHVSCFVCVACGKPIRNNVFHLEDGEPYCETDYYALFGTICRGCEFPIEAGDMFLEALGSTWHDTCFVCSVCCESLEGQTFFSKKDKPLCKKHAHSVNF”, the protein production entry was “failed”.

Turning to “MSPEGAERYDRNCDHQFQKGHVLIEMMGIKKGDFVLDVGCGTGRQALNVAGIIGPAGKLTGIDPSSYRIELARKKFEGDSSGNVRFLVRQAENLQDIPDNSINHAYFCSSFHWVDDKKTALNEIFRVLRPGGKVGMTTLDRNSPNTMKALIDPILAKFGIERRHEWHRGMKKVTAPELHDLLSGAGFTSISIEPRAVPRKYNSPEEFLQHPEEKDSSRGILRDISNETLEKLRQEITEEFRKAQTPEDIGFGNITLFAIATKAQEGLEHHHHHH”, the protein production result is “failed”.

As to “MSPENKICMEQSEDGDLDAGDELFEEVDGDGKGEIFANRELLNIDHVPDENRIVGRDEHITELANEIGPAVTGSPPNSVILYGKTGSGKSLVANHVMERARREAQRRDRRLATVTVDCAQSRGEADTVQTIADKINRSTSGVTVPTRGISTNEYYNRLWQILGTEYDAALITLDEVDRLSDDDILMILSRAREAGKVDVPIGIISISNKVNFREQMTERVKSSLGHNEMIFDPYDGEQLRQILENRKDAFQEDILMPGVIPKTAALAAQRHGDARKAIRLLRHAGDYAKTNNIGTVKESHLELAQEQAEVERLKELISGLPPHSKYVLYALANLTDGTTNSNDWFRTTVIYDVYEEVCKTEATDTLTTDTIRGLLNELAFLEITESNQEHGGMGKGTYKEHRLLWDPNVVFKMNPGSAQVDTDR”, the protein production result is given as “failed”.

In the case of “MSPIDEFTYIKQNKIVYDSNSLIQLYFPIMGSDAMALYDYFVHFFDDGIRRHKFSEVLNHLQYGMPRFQDALVMLTALDLLTVYQATGTYLVKLNQAMSNELFLSNPIYRRLLEKRIGEVAVAELDMKIPKNARDISKKFTDVFSDLGQPKQEVNRSKNVFDLESFKRLMMRDGLRFNNEKDDVLGIYSVSELYHLNWYDTYQLAKQTAINGMIAPQRMKVQQNEGQHIKDNQSFTNNEKVILRESKNDSALVFLEKIKRSRKAVTTSGEKTLLEDLAKMNFLDEVINVMVLYTLNKTKSANLNKAYIMKVANDFAFQNVMTAEDAVLKIRDFSDQKVRTKTETKKKQSNVPEWSNPDYKDEVSPEKEIELEQFKTDALKRLERLGKD”, the protein production entry is “not failed”.

For “MSPIHVRAHPGDVAERVLLPGDPGRAEWIAKTFLQNPRRYNDHRGLWGYTGLYKGVPVSVQTTGMGTPSAAIVVEELVRLGARVLVRVGTAGAASSDLAPGELIVAQGAVPLDGTTRQYLEGRPYAPVPDPEVFRALWRRAEALGYPHRVGLVASEDAFYATTPEEARAWARYGVLAFEMEASALFLLGRMRGVRTGAILAVSNRIGDPELAPPEVLQEGVRRMVEVALEAVLEV”, the protein production result is “not failed”.

Consider “MSPIVSVPDITAPVENVPAILPKVVPGELIVNKPTGGDSDELFQYLVDILASPVYDVAIESPLELAEKLSDRLGVNFYIKREDKQRVFSFKLRGAYNMMSNLSREELDKGVITASAGNHAQGVALAGQRLNCVAKIVMPTTTPQIKIDAVRALGGDVVLYGKTFDEAQTHALELSEKDGLKYIPPFDDPGVIKGQGTIGTEINRQLKDIHAVFIPVGGGGLIAGVATFFKQIAPNTKIIGVEPYGAASMTLSLHEGHRVKLSNVDTFADGVAVALVGEYTFAKCQELIDGMVLVANDGISAAIKDVYDEGRNILETSGAVAIAGAAAYCEFYKIKNENIVAIASGANMDFSKLHKVTELAGLGSGK”, for which the protein production entry is given as “not failed”.

On to “MSPSDSSGDSDDPARSRAAVRRTYEDIGDHFSKTREYAWPEVESFVDESGSVGTALDAGCGNGRHAELLAGVADRVVGLDASRALLRAATDRVGDSVALLQGDATRLPLAAGAVDLAVYVATLHHLPSQTARRASLDELARVLAPGARALVSAWSTAHDHFDADPDADEGFDTTVDWTLPGGETVPRFYHIYAPAEFERDVADSDLRLVSMELSSGNCYGVVEPEGKRT”, for which the protein production result was “failed”.

“MSQEDITGKDRLQELIGADYRLQWIIGHGGMSTVWLADDVVNDREVAIKVLRPEFSDNQEFLNRFRNEAQAAENIDSEHVVATYDYREVPDPAGHTFCFIVMEFVRGESLADLLEREGRLPEDLALDVMEQAAHGLSVIHRMDMVHRDIKPGNMLITANGIVKITDFGIAKAAAAVPLTRTGMVVGTAQYVSPEQAQGKEVTAASDIYSLGVVGYEMMAGRRPFTGDSSVSVAIAHINQAPPQMPTSISAQTRELIGIALRKDPGRRFPDGNEMALAVSAVRLGKRPPQPRTSAMMAQAEAPSPSESTAMLGRVARPATITQEAAPKRGSGIGIGLFIAALLAVIIGAVIYAGTTGILFNDTPEETTTPETITETYTPTVEETTSQWVPPTPPTRSTFTEPETTSHRPTTSEESTSEEPTTEAPTSSRTVPQIPTSTPRTSASVPVETNAPADDLIDAVNGLLDVGGAQ”: the protein production result is “failed”.

With “MSQERTDGDLRNTGLSLKHDREWDYELDRIVEAVEERDAEKVGLQFPEGLKRRGPAVADDLREELPDDVTVLLSGQPCYGACDLDTYMMRRTDVFVHFGHSPMKESDKIIYVPLFSNVDVFPIMEQAREEQLADPEDDPDVGLVTTAQHMNKFDEMREWLEERGYTVHTRRGDERLTHEGQVLGCNYASADVDADQMLYVGGGKFHPLGLAMEHPEKHVVIADPVNNVVTVADTEKFMKQRYGAVHRAMDAESWGVIFCTKIGQGRWDQAEEIVENNENAYLITMDEVTPDRLTNFGMDAYVNTGCPRITTDDGPQFKKPMLTPGEYEIAIGEKPLDSLEFDTFHGTWLEHHHHHH”, the protein production entry was “not failed”.

On to “MSQFDRIHLVVLDSVGIGAAPDANDFVNAGVPDGASDTLGHISKTVGLAVPNMAKIGLGNIPRPQALKTVPAEENPSGYATKLQEVSLGKDTMTGHWEIMGLNITEPFDTFWNGFPEDIITKIEDFSGRKVIREANKPYSGTAVIDDFGPRQMETGELIIYTSADPVLQIAAHEDIIPLEELYRICEYARSITMERPALLGRIIARPYVGEPGNFTRTANRHDYAVSPFEDTVLNKLDQAGIDTYAVGKINDIFNGSGINHDMGHNKSNSHGIDTLIKTMGLSEFEKGFSFTNLVDFDALYGHRRDPHGYRDCLHEFDERLPEIISAMRDKDLLLITADHGNDPTYAGTDHTREYIPLLAYSPSFTGNGLIPVGHFADISATVADNFGVDTAMIGESFLQDLV”, for which the protein production result was “failed”.

Turning to “MSQIEAVFFDCDGTLVDSEVICSRAYVTMFRQFGITLELTEVFRRFKGVKLYEIIDTISKEHGVALAKAELEPVYRAEVARLFDTELEAIAGANTLLESIKTPMCVVSNGPVSKMQHSLGKLGMLHHFPDLLFSGYDIQRWKPDPALMLHAANAMKVNVEKCILVDDSSAGAQSGIAAGMEVFYFCADPHNKPIDHPNVTTFTDLAQLPGLWKARGWEI”, the protein production entry was “not failed”.

Consider “MSQIWFERILRWRKKAQRFLQGRYARFDELNRTLLLTSVVLALINIFTGYLWVRLLILITVAYVYYRFFSKHIHPRLNENQWFILRKQRLMQKVHAFRKRHMTQKEYRYFKCPKCQQSLRAPKGRGTIKVTCSNCQNQFIKKV”, for which the protein production entry is on record as “failed”.

Turning to “MSQMSPGQARVVDPILSTHARGYRQSTLIGKKLFPVAPVAQYGGKILTFGKEAFRLYNTKRAPGANTKRIDFGYEGDPYSIVPSALEAKVPRELMRDASQVPGIDLGARSVNTVLRIMALAHEHECAQIALDPAKYNADHKVKLVGSARWTSPDSDPTKDVETAKEAIADSIGMEPNRLMLSRKALSACKYHPKLIERVKYTRAESITIDMLKALWEVEEIVVGTARVATGANDSFGDVWGPDVWLGYVSDNPDPSVEEPSFGYTYQIEGHPLVEVPYWDNNAKSWIYGVSDDNTPALSGMLAGYLIEDAGLPAA”, the protein production entry was “not failed”.

Source of the values: a protein production outcome set (Wang et al. 2014).
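Note: failed if final PepcDB status was selected cloned or expressed and not failed if soluble or beyond.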
